fluorescein = fluorescein label (on the lysine ε-amine)
B1: MKK3b peptide, unlabeled (peptide)
peptide: Ac-GKSKRKKDLRISCMSKP-NH2
notes: stretch of MKK3b, the most abundant splice variant of MAP2K3; also called unlabeled MKK3b
B2: fluorescein-labeled MKK3b peptide (peptide)
peptide: Ac-GKSKRKKDLRISCMSKPK(fluorescein)-NH2
notes: stretch of MKK3b, the most abundant splice variant of MAP2K3; added C-terminal lysine that carries the fluorescein; also called C-terminal labelled MKK3b peptide

molecular target: T1, p38α (MAPK14), nonphosphorylated (mouse, UniProt P47811 1-360); assay: fluorescence polarisation; competition: unlabeled peptide titrated into 2 nM fluorescein-labeled MKK3b peptide and 10 μM p38α; 50 mM HEPES pH 7.4, 10 mM MgCl2, 1 mM Chaps, 1 mM DTT, 1% DMSO; ambient temperature, 20 minutes; conditions: both partners purified
T1 construct: mouse p38α (MAPK14); Also used as the target of the functional rows on co-expressed p38α (E. coli pETDuet-1 first cloning site; HEK293 plasmid not described); source: E. coli Rosetta II (pETDuet-1), purified
T1 sequence (P47811 whole entry): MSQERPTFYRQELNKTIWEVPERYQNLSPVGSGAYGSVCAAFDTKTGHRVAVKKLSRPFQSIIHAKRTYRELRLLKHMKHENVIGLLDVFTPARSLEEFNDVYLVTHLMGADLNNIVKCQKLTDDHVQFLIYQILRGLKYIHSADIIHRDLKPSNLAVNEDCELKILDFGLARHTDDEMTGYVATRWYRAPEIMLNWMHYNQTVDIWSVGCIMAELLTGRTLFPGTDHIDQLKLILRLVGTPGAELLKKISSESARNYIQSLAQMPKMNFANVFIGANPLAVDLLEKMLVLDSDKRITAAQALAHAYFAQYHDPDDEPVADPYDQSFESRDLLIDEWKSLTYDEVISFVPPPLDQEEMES

binding result | Binder
binds | B1
binds | Ac-RVYPVSVPYSSAQSTSKTSVTLSLVMPSQ-NH2 (also called TAB-1 peptide; TAB1 peptide) [TAB1 (residues 384–412) peptide]
binds | B2

Reference: article PMC6141180, “The TAB1-p38α complex aggravates myocardial injury and can be targeted by small molecules” (JCI Insight, 2018)
